molecular target: T1, recombinant YFV E protein (soluble E, sE; YFV Asibi strain) (Yellow fever virus, Asibi strain, UniProt Q6DV88 286-678); experiment: BLI monovalent (IgG on tip)
T1 construct: also called YFV E antigen; YFV E monomer
T1 sequence (Q6DV88 286-678): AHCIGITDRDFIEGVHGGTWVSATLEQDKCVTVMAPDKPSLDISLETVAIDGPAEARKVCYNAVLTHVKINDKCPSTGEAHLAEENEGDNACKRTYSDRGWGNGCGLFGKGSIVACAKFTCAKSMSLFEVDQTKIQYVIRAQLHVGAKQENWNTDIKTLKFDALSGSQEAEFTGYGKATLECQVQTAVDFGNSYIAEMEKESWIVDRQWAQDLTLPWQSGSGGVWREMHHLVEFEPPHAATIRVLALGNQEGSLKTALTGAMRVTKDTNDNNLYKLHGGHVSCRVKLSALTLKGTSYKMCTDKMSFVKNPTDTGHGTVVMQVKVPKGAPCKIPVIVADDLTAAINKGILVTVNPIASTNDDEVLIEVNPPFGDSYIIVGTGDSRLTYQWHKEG

Row | Binder | Kd
1 | ADI-48916 (antibody, V domains shown, full-length IgG; also called Antibody Number 56) VH: EVQLVESGGGVVQPGRSLRLSCAASGFTFSNSGMHWVRQAPGKGLEWVAVIWYDSRNQNYADSVKGRFTISRDNSKNTLFLQMNSLRAEDTAVYYCARDYYASGDGSIDYWGQGTLVTVSS VL: DIQVTQSPSSLSASVGGRVTITCRASQGIRNDLGWYQRKPGKAPKRLIYAASSLQSGVPSRFSGSGSGTEFTLTISSLQPEDFATYYCLQHNSYPLTFGGGTKVDIK | 393 nM
2 | ADI-46001 (antibody, V domains shown, full-length IgG; also called Antibody Number 52) VH: EVQLVESGGGLVKPGGSLRLSCAASGFTFSDYYMSWIRQAPGKGLEWVSYISSSGNTIYYADSVKGRFTISRDNAKNSLYLQLNSLRAGDTAVYYCARDSNYFYGLDVWGQGTTVTVSS VL: QPVLTQPPSVSVAPGQTARITCGGNNIGSKSVHWYQQKPGQAPMLVIYSNSDRPSGIPERFSGSNSGITATLTISRVEAGDEADYHCQVWDTSIDHHWVFGGGTKLTVL | 6.17 nM
3 | ADI-42831 (antibody, V domains shown, full-length IgG; also called Antibody Number 46) VH: EVQLVESGGGLVQPGGSLRLSCAASGFTFINYAMTWVRQAPGKGLEWVSAISGNGDGTYYADSVKGRFTLSRDNAKNTIYLHMSALRDEDTALYYCAKDQGVTTDWPSDYWGQGTLVTVSS VL: DIRLTQSPSTLSASVGDRVTVTCRASQNINTYLAWYQQIPGKAPRLLIYRASTLESGVPSRFSGSGSGTEFTLTINSLQPDDYATYYCQHYETYSVRFGQGTKVEIK | 19.6 nM
4 | ADI-42821 (antibody, V domains shown, full-length IgG; also called Antibody Number 49) VH: EVQLLESGGGLVPPGGSLRLSCAASGFTFSNYAMSWVRQAPGKGLEWVSAISGSGDSTYYADSVKGRFTLSRDTSKKMVYLHMSNLRDDDTAVYYCARDQGFTTDWPCDYWGQGTLVTVSS VL: DIVLTQSPSTLSASVGDRVTVTCRASQNINTYLAWYQQIPGKAPRLLIYRASSLESGVPSRFSGSGSGTEFTLTISSLQPDDFATYYCQHYNSFSVKFGQGTKVEIK | 12.1 nM
5 | ADI-42230 (antibody, V domains shown, full-length IgG; also called Antibody Number 47) VH: QVQLVESGGGVVQPGRSLRLSCAASGFTFSSYAMHWVRQAPGKGLEWVAVISHDGSNKYYADSVKGRFTISRDNSKNTLYLQINSLRAEDTAVYYCPRDGLPGANQYFFYYGMDVWGQGTTVTVSS VL: DIQVTQSPSSLSASVGDRVTITCRASQGISNYLAWYQQKPGKVPKLLIFAASTLRSGVPSRFRGSGSGTDFTLTISSLQPEDVATYYCQKYNSAPLTFGGGTKVEIK | 1.99 nM
6 | ADI-45154 (antibody, V domains shown, full-length IgG; also called Antibody Number 53) VH: EVQLVESGGGVVQPGRSLRLSCAASGFTFSNYGMHWVRQAPGKGLEWVAVISYDGSNKYYADSVKGRFTISRDDSKNTLYLQVNSLRAEDTAVYYCAKDICSGDCGGGDYWGQGTLVTVSS VL: QSVLIQPPSASGSPGQSVTISCTGTSSDVGGYNYVSWYQQHPGKAPKLMIYEVSKRPSGVPDRFSGSKSGNTASLTVSGLQAEDGADYYCSSYAGSNNWVVFGGGTKLTVL | > 100 nM
7 | ADI-49161 (antibody, V domains shown, full-length IgG; also called Antibody Number 54) VH: QVQLVQSGAEVKKPGASVKVSCKASGYTFNTYAMTWVRQAPGQGLEWMGWISTYNGNTVFGQKFQGRVTLSTDTSTSTAYMELRSLTSDDTAVYYCAREDDDYYSMDVWGQGTTVTVSS VL: QPVLTQPASVSGSPGQSITISCTGTSTDVGGYNYVSWYQQYPGKAPKLIIYDVTNRPSGVSHRFSGSKSGNTASLTISGLQAEDEADYYCSSYTTTSLVIFGGGTKLTVL | 1.81 nM
8 | ADI-42849 (antibody, V domains shown, full-length IgG; also called Antibody Number 50) VH: QVQLVESGGGLVKPGGSLRLSCAASGFTFSDYYMSWIRQAPGKGLEWVSYITSSGNTMYYADSVKGRFTISRDNAKNSLYLQMNSLRAEDTAVYYCARDSNFNSNLDYWGQGTLVTVSS VL: SYELTQPPSVSVAPGQTARITCGGHNVGSKSVHWYQQKPGQAPVLVVYDDSDRPSGIPERFSGSNSGNTATLTISRVEAGDEADYYCQVWDSSSDHPWVFGGGTKVTVL | 1.98 nM
9 | ADI-42818 (antibody, V domains shown, full-length IgG; also called Antibody Number 41) VH: EVQLVESGPGLVKPSGTLSLTCAVSGGSITGSNWWSWVRQPPGKGLEWIGEIYHTGSTSYNPSLKSRVTISVDNSKNHFSLRLTSVTAADTAVYYCARVRWSGSTSWDLDYWGQGTLVTVSS VL: QSVVTQPPSVSAAPGQKVTISCSGSSSNIGNNYVSWYQQLPGTAPKLLIYDNNKRPSGIPDRFSGSTSGTSATLGITGLQTGDEAVYYCGTWDTSPSAGGVFGGGTKVTVL | 2.41 nM
10 | ADI-46586 (antibody, V domains shown, full-length IgG; also called Antibody Number 43) VH: EVQLVESGGGLVKPGGSLRLSCAASGFTFTDYYMSWIRQAPGKGLEWVSYITSSGNTKYYADSVKGRFTISRDNAKNSLFLQMNSLRAEDTAVYFCARDGSMVNAIDYWGQGTLVTVSS VL: QPVLTQPPSVSAAPGQKVTISCSGSSSNIGNDYVSWYQQLPGTAPKLLIYDNNKRPSGIPDRFSGSKSGTSATLGITGLQTGDEGDYYCGTWDSSLSAAWVFGGGTKVTVL | 2.16 nM
11 | ADI-50531 (antibody, V domains shown, full-length IgG; also called Antibody Number 42) VH: EVTLKESGPTLVKPTQTLTLTCTFSGFSLSTSGVGVGWIRQPPGKALEWLALIYWDDDKRYSPSLKSRLTITKDTSKNQVVLTMTNMDPVDTATYYCAHSPRRITMVRGVIITWGDGMDVWGQGTTVTVSS VL: QPVLTQPASVSGSPGQSITISCTGTSSDVGGYNYVSWYQQHPGKAPKLMIYDVSNRPSGVSNRFSGSKSGNTASLTISGLQAEDEADYYCSSYTSSSTLAVFGGGTKLTVL | > 100 nM
12 | ADI-42847 (antibody, V domains shown, full-length IgG; also called Antibody Number 48) VH: EVQLLESGPRLVKPSETLSLTCTVSGGSVRGGSHYWSWIRQPPGKGLEWIGYVYDSGSTNYNPSLKSRVSISVDMSKKQFSLKLRSVTAADTAVYHCVRVEEYVNNEEVRDYWGQGTMVTVSS VL: DIVMTQTPATLSLSPGERATLSCRASQSVSSYLAWYQQKPGQAPRLLIYGASNRATGIPARFSGSGSGTDFTLTISSLEPEDFAVYYCLQRTNWPFTFGPGTKVEIK | 3.21 nM
13 | ADI-42154 (antibody, V domains shown, full-length IgG; also called Antibody Number 55) VH: EVQLVQSGGGLVQPGGSLRLSCAASGFTFSTYWMSWVRQAPGKGLEWVANIKQDGSEKYYVDSVKGRFTISRDNAKNSLYLQMNSLRAEDTAVYYCARDISCISTSCYGGYYYYGMDVWGQGTTVTVSS VL: not shown | 164 nM
14 | ADI-49138 (antibody, V domains shown, full-length IgG; also called Antibody Number 44) VH: QVQLVESGGGVVQPGRSLRLSCAASGFTFSNSGMHWVRQAPGKGLEWVSVIWYDESNKYYADSVKGRFTISRDNSKNTVYLQMNTLRAEDTAVYYCARDAYASGDGGIDYWGQGALVTVSS VL: QPVLTQSASVSGSPGQSITISCTGTSSDVGGYKYVSWYQQHPGKAPKLMIYEVSNRPSGVSIRFSGSKSGNTASLTISGLQAADEADYYCSSYRSSGTPYVFGTGTKVTVL | 17.5 nM
15 | ADI-45085 (antibody, V domains shown, full-length IgG; also called Antibody Number 57) VH: EVQLVESGGGLVQPGGSLRLSCAASGFTFSSYAMSWVRQAPGKGLEWVSTFSGRGGSTYYADFVKGRFTISRDNSKNTLYLQMNSLRAEDTAVYYCAKYYDSSGYYYFDYWGQGTLVTVSS VL: DIQLTQSPSTLSASVGDRVTITCRASQSISTWLAWYQQKPGKAPKLLIYRASSLESGVPSRFSASGSGTEFTLSISSLQPDDFATYYCKQYNRNPYTFGQGTKVEIK | 152 nM
16 | ADI-45097 (antibody, V domains shown, full-length IgG; also called Antibody Number 5) VH: EVQLVESGGGVVQPGRSLRLSCAASGFTFNSHGMHWVRQAPGKGLEWVAVISYDGTKKYFADSVKGRFTISRDNSKNTLYLQMSSLRADDTAVYYCAKDSSTSWYQVVYHIDYWGQGTLVTVSS VL: QSVVTQPPSVSAAPGQKVTISCSGSSSNIGNNYVAWYQQLPGRAPKLLIHDNKKRPSGIPDRFSGSASGTSATLGITGLQTGDEADYYCETWDSSLNAVVFGGGTKLTVL | 1.62 nM

From patent US20240218054A1 (MABLOC, published 2024)
